In the supplement of paper PMC7877785:
± gives the uncertainty stated by the source.

Experiment: self-splicing fitness, log relative to wild type (ln ratio); higher = more splicing; Tetrahymena group I intron in knt gene, E. coli kanamycin selection, DiMSum; sequences stand for … in CUCUCU…GGAGGGAAAAGUUAUCAGGCAUGCACCUGGUAGCUAGUCUUUAAACCAAUAGAUUGCAUCGGUUUAAAAGGCAAGACCGUCAAAUUGCGGGAAAGGGGUCAACAGCCGUUCAGUACCAAGUCUCAGGGGAAACUUUGAGAUGGCCUUGCAAAGGGUAUGGUAAUAAGCUGACGGACAUGGUCCUAACCACGCAGCCAAGUCCUAAGUCAACAGAUCUUCUGUUGAUAUGGAUGCAGUUCACAGACUAAAUGUCGGUCGGGGAAGAUGUAUUCUUCUCAUAAGAUAUAGUCGGACCUCUCCUUAAUGGGAGCUAGCGGAUGAAGUGAUGCAACACUGGAGCCGCUGGGAACUAAUUUGUAUGCGAAAGUAUAUUGAUUAGUUUUGGAGUACUCGUGGUCG
Procedure, shortened: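 Library with all eight P1ex-region intron nucleotides randomised, intron inside the knt kanamycin-resistance gene on pET-22b(+), in E. coli BL21(DE3). Cells grew overnight at 37°C or 30°C on LB agar with or without 25 μg/mL kanamycin (plus 100 μg/mL carbenicillin, 50 μM IPTG, 0.2% rhamnose), in six replicate transformations. Pooled colonies were amplicon-sequenced on Illumina HiSeq 2500. DiMSum fitness is the error-weighted combination of wild-type-normalised replicate fold changes, kanamycin versus none.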

| Sequence | self-splicing fitness (ln) (30 °C) | self-splicing fitness (ln) (37 °C) |
| --- | --- | --- |
| CAAAAGCAAUAUUACGUAAG | -0.419 ± 0.047 | 0.0644 ± 0.059 |
| UAUGAGCAAUAUUACGGAAU | -3.65 ± 0.47 | -2.44 ± 0.38 |
| CGACAGCAAUAUUACGCCCA | -1.56 ± 0.11 | -0.725 ± 0.11 |
| CCACAGCAAUAUUACGUUCU | -2.77 ± 0.1 | -3.7 ± 0.19 |
| AACGAGCAAUAUUACGGGCG | -3.07 ± 0.15 | -1.11 ± 0.19 |
| UCAAAGCAAUAUUACGAAUC |  | -2.76 ± 0.38 |
| CUUUAGCAAUAUUACGGAUU |  | -1.57 ± 0.41 |
| CCAAAGCAAUAUUACGUCAA | -3.22 ± 0.14 | -2.02 ± 0.13 |
| AGCCAGCAAUAUUACGCAUG | -2.87 ± 0.11 | -2.2 ± 0.12 |
| UCUUAGCAAUAUUACGCGAA |  | -1.19 ± 0.3 |
| CACUAGCAAUAUUACGGCCU | -2.77 ± 0.2 | -1.94 ± 0.18 |
| GAUGAGCAAUAUUACGUCGC | -4.14 ± 0.29 | -2.7 ± 0.26 |
| CGAGAGCAAUAUUACGCCCA |  | -0.872 ± 0.36 |
| AAUGAGCAAUAUUACGCACG | -3.21 ± 0.36 |  |
| UUGCAGCAAUAUUACGUCCG | -1.24 ± 0.1 | 0.0449 ± 0.14 |
| UUGGAGCAAUAUUACGCAGU | -1.93 ± 0.34 | -2.84 ± 0.48 |
| CUGGAGCAAUAUUACGUUUC | -3.92 ± 0.31 | -2.38 ± 0.31 |
| AUCCAGCAAUAUUACGCAGU | -2.72 ± 0.11 | -0.839 ± 0.09 |
| GCACAGCAAUAUUACGGAGC | -2.16 ± 0.15 | -2.1 ± 0.21 |
| CAGUAGCAAUAUUACGGUUU | -3.21 ± 0.22 | -0.724 ± 0.15 |
| UUGUAGCAAUAUUACGGGUU | -4.7 ± 0.34 | -2.83 ± 0.3 |
| ACCCAGCAAUAUUACGUGAC | -1.07 ± 0.047 | -1.25 ± 0.085 |
| UAGUAGCAAUAUUACGCAUC | -2.64 ± 0.28 |  |
| UAGAAGCAAUAUUACGAGAU | -3.64 ± 0.33 | -2.16 ± 0.23 |
| GCGCAGCAAUAUUACGCUUA | -0.793 ± 0.062 | -0.338 ± 0.067 |

| Sequence | self-splicing fitness (ln) (30 °C) | self-splicing fitness (ln) (37 °C) |
| --- | --- | --- |
| UAACAGCAAUAUUACGUUGC |  | -2.84 ± 0.25 |
| CUGAAGCAAUAUUACGAUGU | -3.12 ± 0.13 | -1.21 ± 0.12 |
| CCUUAGCAAUAUUACGUGCU | -3.4 ± 0.18 | -2.83 ± 0.31 |
| GACAAGCAAUAUUACGGAAA | -2.13 ± 0.2 | -2 ± 0.23 |
| UGCUAGCAAUAUUACGCUCG | -1.2 ± 0.14 | -0.909 ± 0.17 |
| UAAAAGCAAUAUUACGGACA | -0.712 ± 0.082 | 0.302 ± 0.11 |
| GCCAAGCAAUAUUACGUCCA | -2.32 ± 0.18 | 0.44 ± 0.2 |
| GGGGAGCAAUAUUACGCAUA | -3.29 ± 0.48 | -2.28 ± 0.32 |
| UUCGAGCAAUAUUACGAUCU | -2.66 ± 0.19 | -1.83 ± 0.23 |
| UACGAGCAAUAUUACGUGAG | -3.28 ± 0.16 | -3.58 ± 0.24 |
| GCUGAGCAAUAUUACGGCCC |  | -2.32 ± 0.35 |
| AGAAAGCAAUAUUACGAUUG | -3.82 ± 0.27 | -1.93 ± 0.21 |
| UUGAAGCAAUAUUACGUAAU | -3.46 ± 0.21 | -1.06 ± 0.13 |
| CGAAAGCAAUAUUACGAAAA | -2.38 ± 0.29 | -1.32 ± 0.23 |
| AGUUAGCAAUAUUACGUAAU | -2.56 ± 0.14 | -1.47 ± 0.14 |
| CUAAAGCAAUAUUACGACAA | -2.42 ± 0.15 | -1.2 ± 0.19 |
| AGGCAGCAAUAUUACGUGCA | -1.01 ± 0.1 | -0.142 ± 0.14 |
| UCACAGCAAUAUUACGGCUU | -3.43 ± 0.22 | -1.85 ± 0.17 |
| GAUCAGCAAUAUUACGGCCG | -0.635 ± 0.13 | -0.245 ± 0.14 |
| CCAUAGCAAUAUUACGUAAU | -3.14 ± 0.15 | -3.15 ± 0.23 |
| CAUGAGCAAUAUUACGGGGG | -2.64 ± 0.23 | -2.64 ± 0.3 |
| UUCAAGCAAUAUUACGUGCG | -1.48 ± 0.092 | -0.425 ± 0.088 |
| UCAAAGCAAUAUUACGCAGC | -3.94 ± 0.29 | -2.72 ± 0.17 |
| UGGCAGCAAUAUUACGAUUC |  | -1.46 ± 0.32 |
| UCCCAGCAAUAUUACGUGCG | -3.71 ± 0.15 | -2.93 ± 0.17 |

| Sequence | self-splicing fitness (ln) (30 °C) | self-splicing fitness (ln) (37 °C) |
| --- | --- | --- |
| GGGCAGCAAUAUUACGCGAU | -2.41 ± 0.39 | -1.8 ± 0.28 |
| GUACAGCAAUAUUACGGUUC | -1.29 ± 0.074 | -0.703 ± 0.08 |
| UUACAGCAAUAUUACGAGAC | -3.02 ± 0.27 | -2.18 ± 0.34 |
| ACCUAGCAAUAUUACGAACU | -0.308 ± 0.084 | 0.0875 ± 0.11 |
| CCGGAGCAAUAUUACGCCUA | -2.12 ± 0.26 | -2.59 ± 0.29 |
| AUCCAGCAAUAUUACGUAGG | -2.91 ± 0.14 | -1.49 ± 0.12 |
| CAGCAGCAAUAUUACGGGAA | -3.17 ± 0.33 | -1.58 ± 0.16 |
| GAGGAGCAAUAUUACGAGAC | -2.67 ± 0.22 |  |
| GACGAGCAAUAUUACGGGCC | -2.12 ± 0.14 | -1.63 ± 0.21 |
| UGAAAGCAAUAUUACGUAUG | -1.53 ± 0.098 | -1.21 ± 0.14 |
| AGCUAGCAAUAUUACGGGGA | -2.22 ± 0.17 | -1.68 ± 0.14 |
| CGGAAGCAAUAUUACGGAGG | -1.25 ± 0.15 | -1.01 ± 0.21 |
| GCAUAGCAAUAUUACGUAAG | -1.63 ± 0.083 | -0.386 ± 0.12 |
| AUAGAGCAAUAUUACGGCUC | -0.971 ± 0.11 | -0.403 ± 0.23 |
| CAGCAGCAAUAUUACGUUAC |  | -2.34 ± 0.27 |
| ACGAAGCAAUAUUACGGCUC | -3.05 ± 0.22 | -1.62 ± 0.23 |
| GAUCAGCAAUAUUACGUAAU | -0.0684 ± 0.098 | -0.341 ± 0.13 |
| GUACAGCAAUAUUACGCCGA |  | -1.96 ± 0.41 |
| CUUGAGCAAUAUUACGGACG | -0.339 ± 0.15 | 0.256 ± 0.26 |
| GACGAGCAAUAUUACGAGAC | -3.99 ± 0.28 | -1.95 ± 0.28 |
| UUUAAGCAAUAUUACGGGGA | -1.27 ± 0.1 | -0.724 ± 0.11 |
| UAGAAGCAAUAUUACGCGAU | -2.95 ± 0.41 |  |
| AAUGAGCAAUAUUACGGAGA | -2.59 ± 0.4 | -2.51 ± 0.34 |
| ACAUAGCAAUAUUACGCCUU | -1.25 ± 0.083 | -0.057 ± 0.085 |
| AGAAAGCAAUAUUACGUAUA | -2.13 ± 0.12 | -1.66 ± 0.13 |

| Sequence | self-splicing fitness (ln) (30 °C) | self-splicing fitness (ln) (37 °C) |
| --- | --- | --- |
| CAUCAGCAAUAUUACGCGAU | -3.69 ± 0.23 | -2.86 ± 0.32 |
| AGACAGCAAUAUUACGGAUC | -3.16 ± 0.2 | -0.56 ± 0.17 |
| CAUUAGCAAUAUUACGUGCA | -2.31 ± 0.28 |  |
| CUCUAGCAAUAUUACGUCGC |  | -3.28 ± 0.47 |
| CAUCAGCAAUAUUACGCCAA | -1.99 ± 0.25 | -1.81 ± 0.24 |
| AAUUAGCAAUAUUACGACAU | -0.0913 ± 0.013 | -0.0165 ± 0.033 |
| GAGCAGCAAUAUUACGGAUA | -2.15 ± 0.22 | -2.11 ± 0.26 |
| AGAGAGCAAUAUUACGCAAC |  | -1.44 ± 0.2 |
| GCCAAGCAAUAUUACGAUCG | -2.24 ± 0.22 | -2.42 ± 0.22 |
| GCUUAGCAAUAUUACGGCUU | -0.91 ± 0.089 | -0.586 ± 0.11 |
| GUGAAGCAAUAUUACGCGAG | -0.336 ± 0.057 | -0.0325 ± 0.07 |
| CCCUAGCAAUAUUACGGUUC | -3.92 ± 0.16 | -2.04 ± 0.21 |
| CAUCAGCAAUAUUACGUAGG | -0.284 ± 0.05 | 0.412 ± 0.077 |
| AGCUAGCAAUAUUACGGGCA | -0.728 ± 0.12 | -0.379 ± 0.14 |
| CCAUAGCAAUAUUACGGGUA | -3.25 ± 0.27 | -2.87 ± 0.27 |
| GACAAGCAAUAUUACGGAUG | -2.92 ± 0.11 | -1.75 ± 0.12 |
| UACCAGCAAUAUUACGGUUG | -1.64 ± 0.067 | -0.791 ± 0.084 |
| CAAAAGCAAUAUUACGUUAU | -3.96 ± 0.13 | -2.5 ± 0.12 |
| AUCCAGCAAUAUUACGGCAG | -1.78 ± 0.085 | -0.158 ± 0.097 |
| CGCGAGCAAUAUUACGGCGU | -4.64 ± 0.34 | -2.9 ± 0.29 |
| AGGGAGCAAUAUUACGUCUC | -1.79 ± 0.32 | -2.54 ± 0.48 |
| UCCCAGCAAUAUUACGUUGC | -3.5 ± 0.27 | -2.06 ± 0.27 |
| GGAAAGCAAUAUUACGAUUU | -0.238 ± 0.081 | 0.189 ± 0.1 |
| GAGCAGCAAUAUUACGAAUA | -2.87 ± 0.37 | -1.8 ± 0.24 |
| CGGGAGCAAUAUUACGCUAU | -3.6 ± 0.31 | -2.64 ± 0.48 |
